# US20150218250A1
# pKd: −log10 of the molar value.
# Legend:
# [1] = target: antibody captured by the human Fab capture kit; assay: SPR (BIAcore), antibody captured via human Fab capture kit, 50 nM receptor injected as analyte
# [2] = target: antibody captured by the human Fab capture kit; assay: SPR (BIAcore), antibody captured via human Fab capture kit, 50 nM receptor fusion injected as analyte
# - [3] = assay: SPR; monomeric, top panel
# - [4] = assay: SPR; monomeric, middle panel
substance,measurement,setting,value
FcgammaRIIIaV158 (HisAvi-tag comprising functional variant) (receptor),response units,[1],40 RU
FcgammaRIIIaV158-Avi-IgA Protease-Fc LALA P329G fusion polypeptide (Fc fusion),response units,[2],> 100 RU
monomeric IL18R-Fc fusion polypeptide (top),pKd,- [3],9.04
monomeric IL18R-Fc fusion polypeptide (middle),pKd,- [4],9.10
